Test results reported in paper PMC10232555, “Molecular structure of soluble vimentin tetramers” (Scientific Reports, 2023).
Values joined by “and” are separate entries in the source; they are usually repeats but may differ in a detail not shown here. Equal entries are not always repeated.

Experiments:
[1] = target: the molecule itself; experiment: cross-linking; truncated fragments 0.4 mg/mL in HS conditions (10 mM HEPES, 150 mM NaCl, pH 7.5); DSG and DSBU; reducing SDS-PAGE
[2] = target: the molecule itself; experiment: SEC-MALS; Superdex 200 Increase 10/300 GL, HS buffer (10 mM HEPES, 150 mM NaCl, pH 7.5) after salt jump and 1 h at 37 °C; injected 0.79 mg/mL rod, 0.55 mg/mL ΔNrod, 1.52 mg/mL coil1B

Row | Protein | stoichiometry N [1] | stoichiometry N [2]
1 | vimentin coil1B construct (residues 150-249) (domain or fragment, vimentin, human, coil1B, residues 150-249; theoretical monomer mass printed as 12.1 kDa; also called coil1B fragment; source: denatured in 8 M urea and re-natured by step-wise dialysis before analysis) not shown | 2 | 2
2 | vimentin rod domain (residues 93-404) (domain or fragment, vimentin, human, rod domain, residues 93-404; theoretical monomer mass printed as 36.9 kDa; also called rod fragment; rod construct; source: denatured in 8 M urea and re-natured by step-wise dialysis before analysis) not shown | 4 | 4
3 | vimentin ΔNrod (coil1B and coil2, residues 150-404) (domain or fragment, vimentin, human, coil1B and coil2 domains, residues 150-404; theoretical monomer mass printed as 30.2 kDa; source: denatured in 8 M urea and re-natured by step-wise dialysis before analysis) not shown | 2 | 2 and 4
